Data published in article PMC3638394 (2013).
Where no end group is shown, it is not given here.

T1: αBExt C-terminal peptide, second binding (Homo sapiens, not fully specified; dimer with one αBExt peptide already bound)
T1 chain: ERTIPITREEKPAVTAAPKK

T2: αBPal C-terminal peptide, second binding (Homo sapiens, not fully specified)
T2 chain: ERTIPITRE

T3: αBExt C-terminal peptide, first binding (Homo sapiens)
T3 chain: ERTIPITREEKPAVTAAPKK

T4: αBPal C-terminal peptide, first binding (Homo sapiens)
T4 chain: ERTIPITRE

B1: αB-crystallin core domain (αBDom) dimer 68-153 (protein)
chain: MRLEKDRFSVNLDVKHFSPEELKVKVLGDVIEVHGKHEERQDEHGFISREFHRKYRIPADVDPLTITSSLSSDGVLTVNGPRKQVS
B2: αB-crystallin core domain (αBDom) 68-153 (protein)
chain: B1 chain
B3: αB-crystallin core domain (αBDom) 68-153 (protein)
chain: B1 chain
modifications: both subunits bound to αBPal peptide
B4: αB-crystallin core domain (αBDom) 68-153 (protein)
chain: B1 chain
modifications: both subunits bound to αBExt peptide

Experiments:
Assay in all cases: ion-mobility native mass spectrometry titration
[1] = molecular target: T1, αBExt C-terminal peptide, second binding
[2] = molecular target: T2, αBPal C-terminal peptide, second binding
[3] = molecular target: T3, αBExt C-terminal peptide, first binding
[4] = molecular target: T4, αBPal C-terminal peptide, first binding
[5] = molecular target: the molecule itself
[6] = molecular target: B2

B1
Kd [1]: 300 µM | Kd [2]: 150 µM

B2
Kd [3]: ~70 µM | Kd [4]: ~70 µM | Kd [5]: ~2 µM

B3
Kd [6]: 4 µM

B4
Kd [6]: 6 µM
